The values below come from paper PMC6307885, “Spatiotemporal control of axillary meristem formation by interacting transcriptional regulators” (Development (Cambridge, England), 2018).

Experiment [1] has as its target T1, DRN-GFP (DORNRÖSCHEN fused to GFP, from pDRN::DRN-GFP plants) (Arabidopsis thaliana, UniProt Q9SAD4 1-328).
T1 construct: DORNRÖSCHEN (DRN/ESR1), AP2 family transcription factor, Arabidopsis thaliana, At1g12980; Cole et al., 2009; also called ESR1; ENHANCER OF SHOOT …ON 1; source: Arabidopsis pDRN::DRN-GFP p35S::REV-MYC plants, extract of leaf axil-enriched shoot tissues
As to the kind of experiment: co-IP; anti-GFP on Protein A sepharose beads, blot probed with anti-MYC; extracts of young (younger than P10) and mature (older than P10) leaf axil-enriched tissues of pDRN::DRN-GFP p35S::REV-MYC plants, equal amounts of DRN-GFP; 20 mM HEPES pH 7.5, 40 mM KCl, 1 mM EDTA, 1% Triton X-100. The settings on record: partners not purified.

The target of experiment [2] is T2, BD-REV (full-length REV fused to the binding domain of GAL4) (Arabidopsis thaliana, UniProt Q9SE43 1-842).
T2 sequence (looked up): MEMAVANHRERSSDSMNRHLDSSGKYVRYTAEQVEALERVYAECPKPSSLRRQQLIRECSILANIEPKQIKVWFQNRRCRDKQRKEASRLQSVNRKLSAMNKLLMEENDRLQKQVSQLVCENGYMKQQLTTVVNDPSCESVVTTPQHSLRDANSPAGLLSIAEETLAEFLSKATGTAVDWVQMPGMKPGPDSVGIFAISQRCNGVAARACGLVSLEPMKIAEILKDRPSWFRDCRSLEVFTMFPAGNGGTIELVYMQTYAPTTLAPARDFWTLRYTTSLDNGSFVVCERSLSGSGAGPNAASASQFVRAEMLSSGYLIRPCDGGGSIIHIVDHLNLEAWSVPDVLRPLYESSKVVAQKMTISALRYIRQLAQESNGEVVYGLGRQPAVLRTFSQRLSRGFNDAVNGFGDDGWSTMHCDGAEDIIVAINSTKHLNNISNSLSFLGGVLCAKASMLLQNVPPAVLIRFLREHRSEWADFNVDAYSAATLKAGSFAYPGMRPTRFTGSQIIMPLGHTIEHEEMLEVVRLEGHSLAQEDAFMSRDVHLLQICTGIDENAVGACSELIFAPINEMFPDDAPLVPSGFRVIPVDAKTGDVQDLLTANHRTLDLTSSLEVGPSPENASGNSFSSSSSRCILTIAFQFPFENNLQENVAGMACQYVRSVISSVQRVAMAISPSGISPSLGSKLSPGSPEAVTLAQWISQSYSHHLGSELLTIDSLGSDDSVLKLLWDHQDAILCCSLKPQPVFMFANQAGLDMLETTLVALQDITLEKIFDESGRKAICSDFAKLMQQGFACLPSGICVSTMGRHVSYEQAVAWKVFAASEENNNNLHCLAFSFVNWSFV
Description: cell-based or functional assay.

T1 sequence (Q9SAD4 whole entry, the tested form may be a part): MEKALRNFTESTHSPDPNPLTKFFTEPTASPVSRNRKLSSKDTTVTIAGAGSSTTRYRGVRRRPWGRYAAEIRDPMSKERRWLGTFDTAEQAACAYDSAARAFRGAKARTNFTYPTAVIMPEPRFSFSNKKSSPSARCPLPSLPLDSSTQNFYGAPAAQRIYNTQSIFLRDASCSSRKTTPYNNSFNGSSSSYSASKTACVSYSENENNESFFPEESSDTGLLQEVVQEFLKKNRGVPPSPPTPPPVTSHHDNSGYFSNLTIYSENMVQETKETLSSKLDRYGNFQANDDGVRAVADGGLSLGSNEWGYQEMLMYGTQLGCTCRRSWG

B1: REV-MYC (REVOLUTA with MYC tag, from p35S::REV-MYC plants) (natural protein, Arabidopsis thaliana, UniProt Q9SE43 1-842, looked up)
chain: MEMAVANHRERSSDSMNRHLDSSGKYVRYTAEQVEALERVYAECPKPSSLRRQQLIRECSILANIEPKQIKVWFQNRRCRDKQRKEASRLQSVNRKLSAMNKLLMEENDRLQKQVSQLVCENGYMKQQLTTVVNDPSCESVVTTPQHSLRDANSPAGLLSIAEETLAEFLSKATGTAVDWVQMPGMKPGPDSVGIFAISQRCNGVAARACGLVSLEPMKIAEILKDRPSWFRDCRSLEVFTMFPAGNGGTIELVYMQTYAPTTLAPARDFWTLRYTTSLDNGSFVVCERSLSGSGAGPNAASASQFVRAEMLSSGYLIRPCDGGGSIIHIVDHLNLEAWSVPDVLRPLYESSKVVAQKMTISALRYIRQLAQESNGEVVYGLGRQPAVLRTFSQRLSRGFNDAVNGFGDDGWSTMHCDGAEDIIVAINSTKHLNNISNSLSFLGGVLCAKASMLLQNVPPAVLIRFLREHRSEWADFNVDAYSAATLKAGSFAYPGMRPTRFTGSQIIMPLGHTIEHEEMLEVVRLEGHSLAQEDAFMSRDVHLLQICTGIDENAVGACSELIFAPINEMFPDDAPLVPSGFRVIPVDAKTGDVQDLLTANHRTLDLTSSLEVGPSPENASGNSFSSSSSRCILTIAFQFPFENNLQENVAGMACQYVRSVISSVQRVAMAISPSGISPSLGSKLSPGSPEAVTLAQWISQSYSHHLGSELLTIDSLGSDDSVLKLLWDHQDAILCCSLKPQPVFMFANQAGLDMLETTLVALQDITLEKIFDESGRKAICSDFAKLMQQGFACLPSGICVSTMGRHVSYEQAVAWKVFAASEENNNNLHCLAFSFVNWSFV
notes: REVOLUTA (REV), class III homeodomain-leucine zipper transcription factor, Arabidopsis thaliana, At5g60690; source: Arabidopsis pDRN::DRN-GFP p35S::REV-MYC plants, extract of leaf axil-enriched shoot tissues
As to B1, in experiment [1], the “fold stronger co-precipitated REV-MYC band, old against young leaf axil-enriched tissues” value is ~3 fold.

B2: AD-DRNL (full-length DRNL fused to the activation domain of GAL4) (natural protein)
chain: not shown
Regarding B2, in experiment [2], the “pSTM::Luc reporter (LUC/GUS) in Arabidopsis protoplasts; co-transformation of p35S::DRNL and p35S::REV against transformation with one alone” value is ~2.5 fold.

B3: AD-DRN (full-length DRN fused to the activation domain of GAL4) (natural protein)
chain: not shown
As for B3, the “pSTM::Luc reporter (LUC/GUS) in Arabidopsis protoplasts; co-transformation of p35S::DRN and p35S::REV against transformation with one alone” value in experiment [2] was ~2.5 fold.
